Measured values as given in patent US20190151328A1 (published 2019).

Biological target: T1, human epidermal growth factor receptor 3 (HER3) (human, UniProt P21860 20-1342)
T1 construct: whole, on cells; also called ErbB3; HER3 protein
Test: flow cytometry on HCC1569 cells, PE-coupled anti-human secondary antibody; one-site specific binding fit (GraphPad Prism)
Protocol: A human breast cancer cell line HCC1569 (CRL-2330) from ATCC was cultured in an RPMI1640 medium (purchased from Invitrogen Corp., containing 10% […] (manufactured by Invitrogen Corp.) and 2 mM L-glutamine (manufactured by Invitrogen Corp.)). The cells were dissociated from the culture plate using ACCUTASE® SOLUTION (Millipore Corp., SCR005) or EDTA (5 mM, phosphate buffered saline (PBS, 137 mM sodium chloride, 2.7 mM potassium chloride, 1.47 mM potassium dihydrogen phosphate, and 10.5 mM disodium hydrogen phosphate)), and the number of living cells was measured by trypan blue treatment. The same numbers of cells suspended in a fluorescence-activated cell sorting (FACS) buffer (PBS containing 3% FBS and 0.004% sodium azide) were inoculated to 96-well U-bottom plates, and the cells were precipitated by centrifugation and suspended in 100 uL of an ice-cooled antibody or antibody-drug conjugate dilution or FACS buffer.
The cells of each group were reacted with a primary antibody dilution for 45 minutes on ice and then washed with a FACS buffer. […]
FIG. 3 and Table 1 show the mean fluorescence intensity of HCC1569 treated with serial dilutions of U1-59 or each antibody-drug conjugate. The equilibrium binding affinity KD and the maximum binding strength Bmax were calculated using GraphPad Prism software.

Binder | Bmax | Kd [nM]
Antibody-drug conjugate (3) (antibody, human IgG1, kappa, V domains shown, may carry one drug-linker molecule (L1 species of Common procedure F); position not given; drug-linker -(Succinimid-3-yl-N)-CH2CH2CH2CH2CH2-C(=O)-GGFG-NH-CH2CH2CH2-C(=O)-(NH-DX) (exatecan) on cysteines by thioether bond at the reduced disulfide bonds of the hinge part; positions not given; average 4.9 drug molecules per antibody (Common procedure E), also called ADC (3)) VH: QVQLQQWGAGLLKPSETLSLTCAVYGGSFSGYYWSWIRQPPGKGLEWIGEINHSGSTNYNPSLKSRVTISVETSKNQFSLKLSSVTAADTAVYYCARDKWTWYFDLWGRGTLVTVSS VL: not shown | 29000 | –
Antibody-drug conjugate (13) (antibody, human IgG1, kappa, V domains shown, may carry one drug-linker molecule (L1 species of Common procedure F); position not given; drug-linker -(Succinimid-3-yl-N)-CH2CH2CH2CH2CH2-C(=O)-GGFG-NH-CH2-O-CH2-C(=O)-(NH-DX) (exatecan) on cysteines by thioether bond at the reduced disulfide bonds of the hinge part; positions not given; average 6.2 (Common procedure E) or 7.0 (Common procedure F) drug molecules per antibody, also called ADC (13)) VH: QVQLQQWGAGLLKPSETLSLTCAVYGGSFSGYYWSWIRQPPGKGLEWIGEINHSGSTNYNPSLKSRVTISVETSKNQFSLKLSSVTAADTAVYYCARDKWTWYFDLWGRGTLVTVSS VL: not shown | – | 2.73
